Experimental data reported in patent US20080279957A1, “Immunomodulating compositions from bile” (Lorus Therapeutics Inc., priority 2000, published 2008).

B1: monocyte-CSF (protein, UniProt P09603 33-554, looked up)
Macrophage colony-stimulating …: EEVSEYCSHMIGSGHLQSLQRLIDSQMETSCQITFEFVDQEQLKDPVCYLKKAFLLVQDIMEDTMRFRDNTPNAIAIVQLQELSLRLKSCFTKDYEEHDKACVRTFYETPLQLLEKVKNVFNETKNLLDKDWNIFSKNCNNSFAECSSQDVVTKPDCNCLYPKAIPSSDPASVSPHQPLAPSMAPVAGLTWEDSEGTEGSSLLPGEQPLHTVDPGSAKQRPPRSTCQSFEPPETPVVKDSTIGGSPQPRPSVGAFNPGMEDILDSAMGTNWVPEEASGEASEIPVPQGTELSPSRPGGGSMQTEPARPSNFLSASSPLPASAKGQQPADVTGTALPRVGPVRPTGQDWNHTPQKTDHPSALLRDPPEPGSPRISSLRPQGLSNPSTLSAQPQLSRSHSSGSVLPLGELEGRRSTRDRRSPAEPEGGPASEGAARPLPRFNSVPLTDTGHERQSEGSFSPQLQESVFHLLVPSVILVLLAVGGLLFYRWRRRSHQEPQRADSPLEQPEGSPLTQDDRQVELPV
B2: gamma interferon (protein, UniProt P01579 24-161, looked up)
Interferon gamma: QDPYVKEAENLKKYFNAGHSDVADNGTLFLGILKNWKEESDRKIMQSQIVSFYFKLFKNFKDDQSIQKSVETIKEDMNVKFFNSNKKKRDDFEKLTNYSVTDLNVQRKAIHELIQVMAELSPAAKTGKRKRSQMLFRG

How the values were obtained:
lymphocytes = assay: Stimulation of lymphocyte DNA synthesis; type: cell-based, human; settings: optimal stimulating concentration of PHA
Description: These indicators of immune function also can be modulated in cancer patients who are treated with different biological response modifying agents such as interferon or interleukin-2.
1) Stimulation of Lymphocyte DNA Synthesis: Comparison with an Optimal Stimulating Concentration of Phytohemagglutinin (PHA)

[1] = tested on: mouse hybridoma cell line HYB #6-1; assay: Antiproliferative bioassay in mouse hybridoma cells (Example 4); type: cell-based; settings: procedure of Example 4
Description: The bioassay is carried out as follows. […] Hybridoma cell samples are specifically quantitated. Using a hemocytometer the calls in a 100 μl sample are counted. The cells are concentrated by centrifugation and then cell concentration is adjusted to 1,000 cells/ml (twice the final desired concentration) by addition of appropriate volumes of fresh media. […] After 96 hours, each well is sampled at 100 μl×3 and placed in a 96 well plate. (A blank of 100 μl of medium without cells is included.) Cell density is determined using a PROMEGA CellTiter 96 kit. Cell concentration is measured by reading absorbance at 595 nm (650 nm reference) and recorded by ELISA plate reader. For each assay, a standard curve of cell concentration is prepared. Cultured cells in the log phase of growth are sampled, counted, concentrated and resuspended in serial dilutions. Each dilution is sampled at 100 μl×3 and placed in a 96 well plate. The standard curve is constructed by plotting cell density versus “net” OD at 595 nm after subtraction of zero cell blanks and OD at 650 nm. Cell density of unknown samples is determined by interpolation.

[2] = tested on: tumor cells (monocyte cytotoxicity assay); assay: Effect of indomethacin on tumoricidal function of cancer patients' monocytes (Example 15); settings: for regulation of tumoricidal function by an indomethacin-sensitive function: indomethacin up to 5 ng/ml
[3] = tested on: tumor cells (monocyte cytotoxicity assay); assay: Tumor cytotoxicity of peritoneal macrophages from patients with gynecological disease (Example 14); type: cell-based, human; settings: Monocyte/Tumor Cell ratio 15/1; 7 patients (3 benign, 4 malignant); composition 1:10 of batch 222, gamma interferon 100 U/ml, interleukin-12 500 U/ml, monocyte-CSF 500 U/ml
Source text: Immunother 32:55-61, 1990.

[4] = tested on: tumor cells (monocyte cytotoxicity assay); assay: Tumor cytotoxicity of peripheral blood monocytes from patients with gynecological disease (Example 14); settings: Monocyte/Tumor Cell ratio 15/1; 7 patients (3 benign, 4 malignant); composition 1:10 of batch 222, gamma interferon 100 U/ml, interleukin-12 500 U/ml, monocyte-CSF 500 U/ml
Source text: More particularly, the patient population consisted of 7 patients, 3 with benign disease and 4 with malignant disease (2 ovarian cancers, 1 endometrial cancer, and 1 cervical cancer). Samples were removed from patients at the time of surgical procedure.

Molecule | regulation of tumoricidal function by an indomethacin-sensitive function [2] | % Tumor Cytotoxicity (+/−S.E.) Peritoneal Macrophage [3] [%] | % Tumor Cytotoxicity (+/−S.E.) Peripheral Blood [4] [%] | further results
Phytohemagglutinin [PHA] | – | – | – | Stimulation of lymphocyte DNA synthesis (lymphocytes): 125,817 Counts per Minute
N.O [sample (2), NH3.H2O] | – | – | – | anti-proliferative activity, in words [1]: Neither sample (1) nor sample (2) had any detectable anti-proliferative effect
interleukin-12 [IL-12] | not regulated by an indomethacinsensitive function | 8.5 ± 2 | 26.0 ± 4 | –
CCCCCCCCCCCCCC(=O)O[C@@H]1[C@@H](C)[C@@]2(O)[C@@H](C=C(CO)C[C@]3(O)C(=O)C(C)=C[C@@H]23)[C@@H]2C(C)(C)[C@]12OC(C)=O [Phorbol Ester (PNA)] | not regulated by an indomethacinsensitive function | – | – | –
C[C@H](CCC(=O)NCCS(=O)(=O)O)[C@H]1CC[C@H]2[C@@H]3[C@H](O)C[C@@H]4C[C@H](O)CC[C@]4(C)[C@H]3C[C@H](O)[C@]12C [sample (1), taurocholic acid] | – | – | – | anti-proliferative activity, in words [1]: Neither sample (1) nor sample (2) had any detectable anti-proliferative effect
gamma interferon [IFN-γ] | regulated by an indomethacin-sensitive function | – | – | –
granulocyte macrophage colony stimulating factor [GM-CSF] | regulated by an indomethacin-sensitive function | – | – | –
B1 | regulated by an indomethacin-sensitive function | 7.0 ± 2 | 16.0 ± 2 | % cytotoxicity ([2]; peripheral blood monocytes from cancer patients, activator alone or with indomethacin (up to 5 ng/ml) added simultaneously): 14.1 ± 3%
B2 | – | 9.5 ± 1 | 18.3 ± 2 | –
